From patent US20180251562A1 (XOMA US, published 2018)
Substitutions are numbered along the chain they refer to.

Legend:
[1] = biological target: T1, cynomolgus insulin receptor (INSR) on CHOK1 cells (cyno, UniProt A0A7N9D6H3 48-1390); assay: flow cytometry on CHOK1 cells expressing the INSR ortholog; Fab, anti-human kappa FITC detection
T1 construct: whole, on cells; CHOK1 cells over-expressing cyno INSR; also called cynomologous INSR ortholog; monkey INSR

[2] = biological target: T2, minipig insulin receptor (INSR) on CHOK1 cells (minipig, UniProt F1SCL0 28-758; F1SCL0 763-1382); assay: as above
T2 construct: Cells expressing minipig INSR; also called minipig INSR

[3] = biological target: T3, human insulin receptor (INSR) on CHOK1 cells (human, UniProt P06213 28-1382); assay: as above
T3 construct: whole, on cells; CHOK1 cells over-expressing human INSR; also called human INSR; hINSR

[4] = biological target: T4, rat insulin receptor (INSR) on CHOK1 cells (rat, UniProt P15127 27-1383); assay: as above
T4 construct: whole, on cells; CHOK1 cells over-expressing rat INSR; also called rat INSR ortholog

[5] = biological target: T5, solubilized human INSR (B isoform) from CHO-hINSR-B cells, without insulin (human, UniProt P06213 28-1382); assay: SPR (ProteOn XPR36), solubilized INSR-B captured by CT-3 mAb, Fab injected, -insulin
T5 construct: mature; Detergent-solubilized full-length receptor in cell lysate, captured on the SPR chip by its carboxy-terminal part; also called solubilized INSR

[6] = biological target: T1, cynomolgus insulin receptor (INSR) on …; assay: cell-based or functional assay
[7] = biological target: T2, minipig insulin receptor (INSR) on …; assay: cell-based or functional assay
[8] = biological target: T3, human insulin receptor (INSR) on CHOK1 …; assay: cell-based or functional assay
[9] = biological target: T4, rat insulin receptor (INSR) on CHOK1 …; assay: cell-based or functional assay
[10] = biological target: T1, cynomolgus insulin receptor (INSR) on …; assay: flow cytometry on CHOK1 cells expressing the INSR ortholog; IgG, anti-human IgG APC detection
[11] = biological target: T2, minipig insulin receptor (INSR) on …; assay: as above
[12] = biological target: T3, human insulin receptor (INSR) on CHOK1 …; assay: as above
[13] = biological target: T4, rat insulin receptor (INSR) on CHOK1 …; assay: as above
[14] = biological target: T6, Recombinant human insulin receptor (B form) ECD (R&D Systems) (human, UniProt P06213 28-956, limits assumed); assay: SPR (Biacore 2000), INSR-ECD immobilised; relative to 247.2.018 Fab
T6 construct: extracellular domain; also called INSR-ECD; h-INSR

[15] = biological target: T6, Recombinant human insulin receptor (B …); assay: SPR (Biacore 2000), INSR-ECD immobilised, purified Fab injected, 1:1 fit [cont'd]
[16] = biological target: T3, human insulin receptor (INSR) on CHOK1 …; assay: binding to CHO cells expressing human INSR; 1st column headed CHO Human INSR; quantity and unit not printed [cont'd]
[17] = biological target: T6, Recombinant human insulin receptor (B …); assay: SPR (Biacore 2000), INSR-ECD immobilised, purified Fab injected, 1:1 fit
[18] = biological target: T4, rat insulin receptor (INSR) on CHOK1 …; assay: binding to CHO cells expressing rat INSR; 1st column headed CHO Rat INSR; quantity and unit not printed [cont'd]
[19] = biological target: T1, cynomolgus insulin receptor (INSR) on …; assay: binding to CHO cells expressing cyno INSR; 1st column headed CHO Cyno INSR; quantity and unit not printed [cont'd]
[20] = biological target: T1, cynomolgus insulin receptor (INSR) on …; assay: binding to CHO cells expressing cyno INSR; 2nd column headed CHO Cyno INSR (same numbers as the 1st); quantity and unit not printed [cont'd]
[21] = biological target: T3, human insulin receptor (INSR) on CHOK1 …; assay: binding to CHO cells expressing human INSR; 2nd column headed CHO Human INSR; quantity and unit not printed [cont'd]
[22] = biological target: T4, rat insulin receptor (INSR) on CHOK1 …; assay: binding to CHO cells expressing rat INSR; 2nd column headed CHO Rat INSR (the 1st column's numbers with more digits); quantity and unit not printed [cont'd]

B1: XPA.15.247 Fab (Fab, V domains shown)
VH: EVQLVETGGGVVQPGRSLRLSCAASGFTFSSYAMHWVRQAPGKGLEWVAVISYDGSNKYYADSVKGRFTISRDNSKNTLYLQMNSLRAEDTAVYYCARHEWGFGMDVWGQGTTVTVSS
VL: DVVMTQSPLSLSVTLGQPASISCRSSLSLVYGDENTYLNWFQQRPGQSPRRLLYKVSDRDSGVPDRFSGSGSGTDFTLKISRVEADDVGVYYCMQGTHWPYTFGQGTKLEIKR
notes: Monomeric Fab; also called Fab247; XPA.15.247 parent Fab
[1]
  EC50: 93 nM
[2]
  EC50: 39.8 nM
[3]
  EC50: 34.8 nM
[4]
  EC50: 11.8 nM
[5]
  Kd: 56 nM
  koff: 0.00211 s⁻¹
  kon: 37400 M⁻¹ s⁻¹
[6]
  EC50 (nM), pAKT signaling assay: 82.4 nM
[7]
  EC50 (nM), pAKT signaling assay: 20.7 nM
[8]
  EC50 (nM), pAKT signaling assay: 44 nM
[9]
  EC50 (nM), pAKT signaling assay: 46.6 nM

B2: XPA.15.247.2.011 Fab (Fab, V domains shown)
VH: B1 VH with D54S, M105F, V107Y
VL: B1 VL with S12P, L27H, E34G, Q42H, L53I, D58N, S68A, V88F, Y91F
notes: Fab; also called XPA.15.247.011
[1]
  EC50: 17.2 nM
[2]
  EC50: 5.8 nM
[3]
  EC50: 2.7 nM
[4]
  EC50: 1.9 nM
[5]
  Kd: 10 nM
  koff: 0.000705 s⁻¹
  kon: 70400 M⁻¹ s⁻¹
[6]
  EC50 (nM), pAKT signaling assay: 6.2 nM
[7]
  EC50 (nM), pAKT signaling assay: 4.4 nM
[8]
  EC50 (nM), pAKT signaling assay: 5 nM
[9]
  EC50 (nM), pAKT signaling assay: 7.8 nM

B3: XPA.15.247.2.011 IgG (antibody, V domains shown)
VH: B1 VH with D54S, M105F, V107Y
VL: B1 VL with S12P, L27H, E34G, Q42H, L53I, D58N, S68A, V88F, Y91F
notes: Tested as IgG; also called XPA.15.247.011
[10]
  EC50: 3.3 nM
[11]
  EC50: 1.5 nM
[12]
  EC50: 1 nM
[13]
  EC50: 1.3 nM
[6]
  EC50 (nM), pAKT signaling assay: 1.3 nM
[7]
  EC50 (nM), pAKT signaling assay: 1.7 nM
[8]
  EC50 (nM), pAKT signaling assay: 1.5 nM
[9]
  EC50 (nM), pAKT signaling assay: 3.1 nM

B4: RHF.15.05896.006 (Fab, V domains shown)
VH: B1 VH with T28K, D54S, S56D, M105F, V107R
VL: DVVMTQSPLSLPVTLGQPASISCRSSQSLVYGDGNTYLNWFQQRPGQSPRRLIYKVSNRDSGVPDRFSGSGSGTEFTLKISRVEAEDVGVYFCMQGTYWPGTFGGGTKLEIKR
notes: Untagged Fab
[14]
  Fold KD Improvement: 5.2 fold
[15]
  koff: 0.00024 s⁻¹
  kon: 130000 M⁻¹ s⁻¹
[16]
  CHO Human INSR: 2.95
[17]
  Kd: 1.9 nM

B5: XPA.15.247.2.014 IgG (antibody, V domains shown)
VH: B1 VH with D54S, M105F, V107Y
VL: B4 VL with N58K, E75D, F92Y, G101M
notes: Tested as IgG; also called XPA.15.247.014
[10]
  EC50: 1.1 nM
[11]
  EC50: 0.9 nM
[12]
  EC50: 0.7 nM
[13]
  EC50: 0.7 nM
[6]
  EC50 (nM), pAKT signaling assay: 1.7 nM
[7]
  EC50 (nM), pAKT signaling assay: 2.3 nM
[8]
  EC50 (nM), pAKT signaling assay: 2.1 nM
[9]
  EC50 (nM), pAKT signaling assay: 4.2 nM

B6: RHF.15.05896.020 (Fab, V domains shown)
VH: B1 VH with T28K, Y53W, D54S, M105F, V107E
VL: B4 VL
notes: Untagged Fab
[18]
  CHO Rat INSR: 0.661
[19]
  CHO Cyno INSR: 0.911
[20]
  CHO Cyno INSR: 0.911
[14]
  Fold KD Improvement: 6.4 fold
[21]
  CHO Human INSR: 0.838
[15]
  koff: 0.00017 s⁻¹
  kon: 110000 M⁻¹ s⁻¹
[16]
  CHO Human INSR: 1.96
[17]
  Kd: 1.5 nM
[22]
  CHO Rat INSR: 0.66

B7: XPA.15.247.2.014 Fab (Fab, V domains shown)
VH: B1 VH with D54S, M105F, V107Y
VL: B4 VL with N58K, E75D, F92Y, G101M
notes: Fab; also called XPA.15.247.014
[1]
  EC50: 10.2 nM
[2]
  EC50: 2.9 nM
[3]
  EC50: 1.8 nM
[4]
  EC50: 1.7 nM
[5]
  Kd: 3.7 nM
  koff: 0.000705 s⁻¹
  kon: 137000 M⁻¹ s⁻¹
[6]
  EC50 (nM), pAKT signaling assay: ~15.1 nM
[7]
  EC50 (nM), pAKT signaling assay: 8.4 nM
[8]
  EC50 (nM), pAKT signaling assay: 9.6 nM
[9]
  EC50 (nM), pAKT signaling assay: ~15.6 nM

B8: RHF.15.05896.036 (Fab, V domains shown)
VH: B1 VH with T28K, D54S, S56G, M105F, V107L
VL: B4 VL
notes: Untagged Fab
[14]
  Fold KD Improvement: 5.4 fold
[15]
  koff: 0.00022 s⁻¹
  kon: 120000 M⁻¹ s⁻¹
[16]
  CHO Human INSR: 3.04
[17]
  Kd: 1.8 nM

B9: RHF.15.05896.015 (Fab, V domains shown)
VH: B1 VH with T28K, D54S, S56R, M105Q, V107Y
VL: B4 VL
notes: Untagged Fab
[14]
  Fold KD Improvement: 3.3 fold
[15]
  koff: 0.00025 s⁻¹
  kon: 84000 M⁻¹ s⁻¹
[16]
  CHO Human INSR: 4.35
[17]
  Kd: 3 nM

B10: RHF.15.05896.068 (Fab, V domains shown)
VH: B1 VH with T28K, D54S, S56G, M105Y, V107Y
VL: B4 VL
notes: Untagged Fab
[18]
  CHO Rat INSR: 0.533
[19]
  CHO Cyno INSR: 0.854
[20]
  CHO Cyno INSR: 0.854
[14]
  Fold KD Improvement: 8.3 fold
[21]
  CHO Human INSR: 0.762
[15]
  koff: 0.00038 s⁻¹
  kon: 320000 M⁻¹ s⁻¹
[16]
  CHO Human INSR: 1.25
[17]
  Kd: 1.2 nM
[22]
  CHO Rat INSR: 0.533

B11: RHF.15.05896.056 (Fab, V domains shown)
VH: B1 VH with T28K, D54G, M105F, V107E
VL: B4 VL
notes: Untagged Fab
[14]
  Fold KD Improvement: 6.9 fold
[15]
  koff: 0.00017 s⁻¹
  kon: 120000 M⁻¹ s⁻¹
[16]
  CHO Human INSR: 2.26
[17]
  Kd: 1.4 nM

B12: RHF.15.05896.044 (Fab, V domains shown)
VH: B1 VH with T28K, Y53N, D54S, M105F, V107K
VL: B4 VL
notes: Untagged Fab
[14]
  Fold KD Improvement: 7.4 fold
[15]
  koff: 0.00017 s⁻¹
  kon: 130000 M⁻¹ s⁻¹
[16]
  CHO Human INSR: 2.52
[17]
  Kd: 1.3 nM

B13: RHF.15.05896.032 (Fab, V domains shown)
VH: B1 VH with T28K, D54S, S56E, M105F, V107E
VL: B4 VL
notes: Untagged Fab
[14]
  Fold KD Improvement: 8.6 fold
[15]
  koff: 0.0001 s⁻¹
  kon: 91000 M⁻¹ s⁻¹
[16]
  CHO Human INSR: 3.1
[17]
  Kd: 1.1 nM
